The text below walks through data of FireProtDB (doi:10.1110/ps.8.9.1843).

To fix the notation:
B1: Guanyl-specific ribonuclease T1 wild type, P00651 (protein)
chain: MMYSKLLTLTTLLLPTALALPSLVERACDYTCGSNCYSSSDVSTAQAAGYQLHEDGETVGSNSYPHKYNNYEGFDFSVSSPYYEWPILSSGDVYSGGSPGADRVVFNENNQLAGVITHTGASGNNFVECT
B2: Guanyl-specific ribonuclease Sa wild type, P05798 (protein)
chain: DVSGTVCLSALPPEATDTLNLIASDGPFPYSQDGVVFQNRESVLPTQSYGYYHEYTVITPGARTRGTRRIITGEATQEDYYTGDHYATFSLIDQTC

The conditions of the first data set: Aspergillus oryzae (strain ATCC 42149 / RIB 40); pH 2.5; 25 °C; Urea; CD; glycine 30 mM; whole UniProt chain shown.
As for B1, the denaturant m value came to 1.59 kcal/mol/M and the “denaturant midpoint (higher = more stable)” value worked out at 3.66 M.

The same data set, now with this note: Aspergillus oryzae (strain ATCC 42149 / RIB 40); pH 7; 25 °C; Urea; CD; MOPS 30 mM; whole UniProt chain shown.
For the protein B1, the denaturant m value was 1.23 kcal/mol/M and the “denaturant midpoint (higher = more stable)” value was determined as 5.23 M.

Still in this data set, the particulars now being: Kitasatospora aureofaciens; pH 7; Thermal; CD; MOPS 30 mM; whole UniProt chain shown.
Take B2: the Tm is 47.2 °C and the “unfolding enthalpy (van 't Hoff)” value came out at 91 kcal/mol.
